Here are results for 35 molecules from patent US20240100159A1, “USE OF IL-7R-ALPHA-GAMMA AGONIST PEPTIDES IN CELL MANUFACTURING” (MEDIKINE, INC., priority 2022, published 2024).

Ends that are not written are not given here.

For one assay, the target named is T1, hu-IL-7Rα subunit (human, UniProt P16871 21-239, limits assumed).
T1 construct: also called human interleukin-7 receptor subunit α; CD127
T1 sequence (looked up): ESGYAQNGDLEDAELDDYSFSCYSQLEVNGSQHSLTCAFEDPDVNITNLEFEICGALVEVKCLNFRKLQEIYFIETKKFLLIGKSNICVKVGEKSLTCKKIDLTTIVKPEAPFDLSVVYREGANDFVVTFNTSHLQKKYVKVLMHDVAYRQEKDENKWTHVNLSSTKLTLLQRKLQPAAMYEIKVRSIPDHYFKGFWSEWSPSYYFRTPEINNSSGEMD
Nature of the assay: phage ELISA competition assay. In general terms: An ELISA detects its analyte on a solid surface through an enzyme-linked reagent.
What is called IC50 is the midpoint of a concentration-inhibition curve. Low readings indicate greater potency, high ones weaker potency. Regarding VPWCMLDPGSMQCAWL (also called IL-7Rα ligand) [SEQ ID NO 113], the concentration for half-maximal inhibition (IC50) was under 10 µM.

In the case of KAGSWFIPWCTLDPGSLQCAFL (also called IL-7Rα ligand) [SEQ ID NO 105], the IC50 is under 10 µM.

Take HLGVPWCTLDPGSIQCAWLAKH (also called IL-7Rα ligand) [SEQ ID NO 102]: the IC50 is under 10 µM.

With YRSGHGIPWCMLDPGGLQCSWL (also called IL-7Rα ligand) [SEQ ID NO 117], the IC50 is under 10 µM.

As to HCLHWNIETLMSCVYGNFEE (also called IL-7Rα ligand) [SEQ ID NO 100], the IC50 is under 10 µM.

Molecule HCKHWDLESLLLCV (also called IL-7Rα ligand) [SEQ ID NO 101] displayed an IC50 of under 10 µM.

As for RHFDDIIPWCTLDPGSLQCAYL (also called IL-7Rα ligand) [SEQ ID NO 110], the IC50 is under 10 µM.

Take IRSCLWQPGALHCTWWAEEEPV (also called IL-7Rα ligand) [SEQ ID NO 103]: the IC50 is under 10 µM.

QCVHWDLDTLFGCIREQLEL (also called IL-7Rα ligand) [SEQ ID NO 109] had an IC50 of under 10 µM.

For VHRIPWCTLDPGGLQCAWLRQM (also called IL-7Rα ligand) [SEQ ID NO 114], the IC50 was under 10 µM.

In turn, IPWCLLDPGGLQCVWL (also called IL-7Rα ligand) [SEQ ID NO 104] came in with an IC50 of under 10 µM.

Regarding GWGIPWCTLDPGSLQCAWLGKH (also called IL-7Rα ligand) [SEQ ID NO 116], the IC50 was under 10 µM.

Consider SAKVLKQCLHWDLESLLSCL (also called IL-7Rα ligand) [SEQ ID NO 111], for which the IC50 was under 10 µM.

For NPFRSVVPWCALDPGSLQCAWL (also called IL-7Rα ligand) [SEQ ID NO 106], the IC50 was under 10 µM.

Consider WVTIPWCILDPGSLQCEWQTKV (also called IL-7Rα ligand) [SEQ ID NO 115], for which the IC50 was under 10 µM.

In another assay the target is T2, hu-IL-7Rγc subunit (human, UniProt P31785 23-262, limits assumed).
T2 construct: also called human Rγc subunit; common γc receptor
T2 sequence (looked up): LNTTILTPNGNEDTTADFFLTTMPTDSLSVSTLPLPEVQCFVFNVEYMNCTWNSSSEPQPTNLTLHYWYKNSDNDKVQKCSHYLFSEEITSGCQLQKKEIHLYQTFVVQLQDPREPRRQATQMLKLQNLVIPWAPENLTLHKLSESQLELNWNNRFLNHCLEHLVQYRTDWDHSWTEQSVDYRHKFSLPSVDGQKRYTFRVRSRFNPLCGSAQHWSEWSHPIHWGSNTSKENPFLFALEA
Test: not given
Take WSKKAEVVCEEWGGVEFCWI (not fully specified (bridges); cysteine pairing not given here, also called Rγc ligand) [SEQ ID NO 281]: the IC50 is under 100 µM.

In turn, EGSTTTIECEEWAGVELCWL (not fully specified (bridges); cysteine pairing not given here, also called Rγc ligand) [SEQ ID NO 273] had an IC50 of under 100 µM.

Turning to KPVVVCEEWQGVELCWLEIQ (not fully specified (bridges); cysteine pairing not given here, also called Rγc ligand) [SEQ ID NO 301], the IC50 was under 100 µM.

Molecule YSRELYVQCEDWEGVELCWI (not fully specified (bridges); cysteine pairing not given here, also called Rγc ligand) [SEQ ID NO 260] returned an IC50 of under 100 µM.

In turn, RLLNSVVECLDWEGVELCWQ (not fully specified (bridges); cysteine pairing not given here, also called Rγc ligand) [SEQ ID NO 268] had an IC50 of under 100 µM.

KTTVACQDWGGVELCWVERV (not fully specified (bridges); cysteine pairing not given here, also called Rγc ligand) [SEQ ID NO 298] had an IC50 of under 100 µM.

The molecule FAHHGVVECQEWYGVELCWQ (not fully specified (bridges); cysteine pairing not given here, also called Rγc ligand) [SEQ ID NO 279] returned an IC50 of under 100 µM.

In the case of VVCEVFQGVELCWCENEEFT (not fully specified (bridges); cysteine pairing not given here, also called Rγc ligand) [SEQ ID NO 302], the IC50 was under 100 µM.

As for AHSRQEVVCEEWYGVELCWI (not fully specified (bridges); cysteine pairing not given here, also called Rγc ligand) [SEQ ID NO 258], the IC50 is under 100 µM.

Molecule VVCQEWEGVELCWC (not fully specified (bridges); cysteine pairing not given here, also called Rγc ligand) [SEQ ID NO 270] registered an IC50 of under 100 µM.

The molecule VVCQEWEGVELCWVEPPLLP (not fully specified (bridges); cysteine pairing not given here, also called Rγc ligand) [SEQ ID NO 295] gave an IC50 of under 100 µM.

VTCQEYEGVELCWTVGCAYS (not fully specified (bridges); cysteine pairing not given here, also called Rγc ligand) [SEQ ID NO 307] had an IC50 of under 100 µM.

The molecule KKIVVCQDWGGVELCWTEDD (not fully specified (bridges); cysteine pairing not given here, also called Rγc ligand) [SEQ ID NO 317] displayed an IC50 of under 100 µM.

On to RSNQTVVECQDWEGVELCWQ (not fully specified (bridges); cysteine pairing not given here, also called Rγc ligand) [SEQ ID NO 282], for which the IC50 is under 100 µM.

Regarding VVCQEWEGVELCWYAGECMQ (not fully specified (bridges); cysteine pairing not given here, also called Rγc ligand) [SEQ ID NO 283], the IC50 is under 100 µM.

RSDDEVVVCQEWEGVELCWQ (not fully specified (bridges); cysteine pairing not given here, also called Rγc ligand) [SEQ ID NO 275] registered an IC50 of under 100 µM.

Regarding KLTVECQDWDGVELCWVGVE (not fully specified (bridges); cysteine pairing not given here, also called Rγc ligand) [SEQ ID NO 293], the IC50 is under 100 µM.

Regarding IECEEWAGVELCWL (not fully specified (bridges); cysteine pairing not given here, also called Rγc ligand) [SEQ ID NO 276], the IC50 is under 100 µM.

DVECVDWGGVELCWH (not fully specified (bridges); cysteine pairing not given here, also called Rγc ligand) [SEQ ID NO 255]: the IC50 was under 100 µM.

With ILCQEFEGVELCWLEESLAE (not fully specified (bridges); cysteine pairing not given here, also called Rγc ligand) [SEQ ID NO 284], the IC50 was under 100 µM.
